Results on one substance are retold here after publication doi:10.1101/2022.05.18.492574.

A word on the stoichiometry N: it is a count of units in the complex or per binding partner.

For the assay, the target named is GyrA14 (UniProt P0AES4). As to the kind of experiment: SEC-MALS. A general note: Size exclusion chromatography separates by hydrodynamic size, large species first.

In turn, “GyrA14 (from UniProt P0AES4 363-494) (domain or fragment)” gave a stoichiometry N of 2.
